Data reported in US20140178375A1 (TRUSTEES OF THE UNIVERSITY PF PENNSYLVANIA, published 2014).
Residue numbers refer to the chain shown, from its start. Numbers in names are those of the source.

B1: S22-Fc (Fc fusion)
chain: MAYCFPDEEGACYGGGGGSDKTHTCPPCPAPELLGGPSVFLFPPKPKDTLMISRTPEVTCVVVDVSHEDPEVKFNWYVDGVEVHNAKTKPREEQYNSTYRVVSVLTVLHQDWLNGKEYKCKVSNKALPAPIEKTISKAKGQPREPQVYTLPPSRDELTKNQVSLTCLVKGFYPSDIAVEWESNGQPENNYKTTPPVLDSDGSFFLYSKLTVDKSRWQQGNVFSCSVMHEALHNHYTQKSLSLSLEHHHHHH
notes: S22 peptide, glycine-serine linker, human IgG1 Fc (hinge part, CH2, CH3) and C-terminal His tag; Expressed in E. coli and purified on Ni-sepharose; also called S22-Fc fusion protein
B2: S22-FcT322A (Fc fusion)
chain: B1 chain with T98A
B3: LS22FcT322AG7 (Fc fusion)
chain: MLCGGGGYCFPDEEGACYGGGGGSDKTHTCPPCPAPELLGGPSVFLFPPKPKDTLMISRTPEVTCVVVDVSHEDPEVKFNWYVDGVEVHNAKTKPREEQYNSAYRVVSVLTVLHQDWLNGKEYKCKVSNKALPAPIEKTISKAKGQPREPQVYTLPPSRDELTKNQVSLTCLVKGFYPSDIAVEWESNGQPENNYKTTPPVLDSDGSFFLYSKLTVDKSRWQQGNVFSCSVMHEALHNHYTQKSLSLSLEHHHHHH
notes: It has the N-terminal MLCGGGG before the S22 peptide, the T322A Fc and a His tag; also called S22-FcT322A#2; S22FcT322A#2
B4: LS22FcT322AS7 (Fc fusion)
S22 peptide-Fc fusion chain with C-terminal His tag: B3 chain with G7S
B5: LS22FcG7 (Fc fusion)
chain: B3 chain with A103T
notes: Wild type Fc fragment with the N-terminal MLCGGGG before the S22 peptide, and a His tag

Key:
human EGFR on NE91 cells [1] = molecular target: T1, human EGFR on NE91 cells (human, UniProt P00533 25-1210); assay: FACS, 100 ug S22-Fc on 1x10^5 cells, anti-His detection
T1 construct: whole, on cells; also called epidermal growth factor receptor
Protocol: FACS analysis was used to detect binding of S22-Fc to HER2-expressing cell lines. Purified S22-Fc was used in FACS experiments to stain cells with different expression levels of HER2 and EGFR. Initially, 1×10⁵ cells were incubated with 100 μg S22-Fc for 30 minutes on ice. The cells were then washed and incubated with his-tag-specific rabbit antisera and secondary Alexa488-conjugated anti-rabbit antibodies, used sequentially. As a negative control, parallel cell preparations were exposed to only his-tag-specific rabbit antisera and secondary antibodies.

[2] = molecular target: T2, human HER2 on T6-17 cells (human, UniProt P04626 23-1255); assay: FACS on T6-17 cells expressing human HER2, detected by anti-his tag and secondary antibodies; control (anti-his tag and secondary antibodies only) has Geo mean 3.99
T2 construct: whole, on cells; also called HER2/neu; human epidermal growth factor receptor 2

[3] = molecular target: T2, human HER2 on T6-17 cells; assay: FACS on T6-17 cells
human EGFR on NE91 cells [4] = molecular target: T1, human EGFR on NE91 cells; assay: FACS on NE91 cells

Row | Binder | binding result (human EGFR on NE91 cells [1]) | FACS Geo mean [2] | binding result [3] | binding result (human EGFR on NE91 cells [4])
1 | B1 | binds | 27.2 | – | –
2 | B2 | – | – | binds | binds
3 | B3 | – | 39.1 | – | binds
4 | B4 | – | 28.7 | – | –
5 | B5 | – | 51 | – | –
